From US20250340659A1 (PETMEDIX, published 2025)
Substitutions are numbered along the chain they refer to. Read-outs that look alike come from different tables or passages of the source. One block for each molecule: values may come before it.

What was measured:
[1] = target: T1, canine OX40L, full length membrane form, expressed on HEK293 cells (canine); assay: flow cytometry
T1 sequence: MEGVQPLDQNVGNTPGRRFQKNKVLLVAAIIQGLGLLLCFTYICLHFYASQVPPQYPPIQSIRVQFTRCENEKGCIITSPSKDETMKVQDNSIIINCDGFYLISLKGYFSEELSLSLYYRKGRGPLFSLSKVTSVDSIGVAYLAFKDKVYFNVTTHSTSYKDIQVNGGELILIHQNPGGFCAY

[2] = target: T1, canine OX40L, full length membrane form, expressed on HEK293 cells (canine); assay: flow cytometry, OX40L HEK minus WT HEK
[3] = target: T2, recombinant canine OX40L ECD-TNCc-HIS protein (canine); assay: SPR Koff (kd2)
T2 construct: also called Trimeric OX40L probe (HIS tag); trimeric canine OX40L
T2 chain: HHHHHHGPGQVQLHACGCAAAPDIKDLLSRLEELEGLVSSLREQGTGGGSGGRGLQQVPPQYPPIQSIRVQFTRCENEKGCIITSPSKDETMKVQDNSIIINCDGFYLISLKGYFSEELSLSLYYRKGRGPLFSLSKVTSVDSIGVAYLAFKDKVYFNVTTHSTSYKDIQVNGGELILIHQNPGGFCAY
Method in brief: (§1)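 Purified antigen amine-coupled at low density to a CM5 chip; candidate antibodies injected as analyte over a concentration range. Kinetic curves fitted with a bivalent analyte model to give functional affinity and dissociation rates.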

[4] = target: T3, canine OX40L, full length membrane form, expressed on HEK293 cells (canine); assay: flow cytometry, OX40L HEK minus WT HEK
T3 construct: also called OX40L expressing HEK; HEK OX40L cells
T3 chain: T1 sequence
Method in brief: (§2)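 CHO supernatants at 1, 5 or 10 μg/ml in PBS/3% FBS incubated 30′ on ice with cells surface-expressing canine OX40L. Bound antibody detected with fluorescent anti-canine Fc secondary (1:1000, 30 min, dark) and measured by flow cytometry, with parental WT HEK signal subtracted where stated.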

[5] = target: T3, canine OX40L, full length membrane …; assay: cell-based or functional assay
[6] = target: T3, canine OX40L, full length membrane …; assay: flow cytometry
Method in brief: as §2

[7] = target: T2, recombinant canine OX40L ECD-TNCc-HIS …; assay: SPR KD1, bivalent analyte model
Method in brief: as §1

[8] = target: T2, recombinant canine OX40L ECD-TNCc-HIS …; assay: SPR Koff (kd1)
Method in brief: as §1

[9] = target: T1, canine OX40L, full length membrane form, expressed on HEK293 cells (canine); assay: cell-based or functional assay; remark: listed apart in the source

Molecule: neg CTR
GEO mean OX40L expressing HEK [1]: 19600 | GEO mean difference [2]: -4380

B1: PMX035 (antibody, V domains shown)
VH: EVQLVESGGDLVKPGGSLRLSCVASGFTFSNFEMYWVRQAPGKGLEWVARIYKSGSTTYHSERVKGRFTISKDSATNMAFLQMNSLRAEDTAVYYCTSASSTGWRFDYWGQGTLVTVSS
VL: SYVLTQLPSVSVTLRQTARITCGGDSIGRKNVCWFQQKLGQAPVLIIYDDNSRPSGIPERFSGANSGNTATLTISGALAEDEADYYCQVWDSSTGIFGGGTHLTVL
notes: also called PMX35
koff [3]: 0.000498 s⁻¹ | GEO mean difference [4]: 1.38e+06 | % Signal Inhibition Average [5]: 73.5% | % Signal Inhibition Rep1 [5]: 85.3% | % Signal Inhibition Rep2 [5]: 67.4% | % Signal Inhibition Rep3 [5]: 67.8% | GEO mean OX40L expressing HEK [6]: 1.41e+06 | Kd [7]: 0.269 µM | koff [8]: 0.0311 s⁻¹

B2: PMX040 (antibody, V domains shown)
VH: B1 VH with K53E, S56T, S61A, R63G, S74N, A75V, T76K, F80Y, T102S, G103S
VL: B1 VL with V44I, N51S
notes: also called PMX40
koff [3]: 0.436 s⁻¹ | GEO mean difference [4]: 1.15e+06 | % Signal Inhibition Average [5]: 77.1% | % Signal Inhibition Rep1 [5]: 75.4% | % Signal Inhibition Rep2 [5]: 84.2% | % Signal Inhibition Rep3 [5]: 71.8% | GEO mean OX40L expressing HEK [6]: 1.18e+06 | Kd [7]: 0.00126 µM | koff [8]: 0.000748 s⁻¹

B4: PMX044 (antibody)
heavy: EVQLVESGGDPVKPEGSQRLSCVVSGFTFSSYDMSWVRQAPGKGLQWVAYITSDGRSTSYTDAVKGRFTISRDNARNTLFLQMNSLRTEDTAVYYCARHSSSWSRGRFGMDYWGHGTSLFVSSASTTAPSVFPLAPSCGSTSGSTVALACLVSGYFPEPVTVSWNSGSLTSGVHTFPSVLQSSGLYSLSSMVTVPSSRWPSETFTCNVAHPASKTKVDKPVPKRENGRVPRPPDCPKCPAPESLGGPSVFIFPPKPKDTLLIARTPEVTCVVVDLGREDPEVQISWFVDGKQMQTAKTQPREEQFNGTYRVVSVLPIGHQDWLKGKQFTCKVNHIGLPSPIERTISKARGQAHQPSVYVLPPSREELSKNTVSLTCLIKDFFPPDIDVEWQSNGQQEPESKYRTTPPQLDEDGSYFLYSKLSVDKSRWQRGDTFICAVMHEALHNHYTQKSLSHSPGK
VL: SYVLTQLPSKNVTLKQPAHITCGGDNIGSKSVHWYQQKLGQAPVLIIYYDSSRPTGIPERFSGANSGNTATLTISGALAEDEADYYCQVWDSSAGVFGGGTHLTVL
notes: also called PMX44
koff [3]: 0.0598 s⁻¹ | GEO mean difference [4]: 1.5e+06 | % Signal Inhibition Average [5]: 75.1% | % Signal Inhibition Rep1 [5]: 75.7% | % Signal Inhibition Rep2 [5]: 66% | % Signal Inhibition Rep3 [5]: 83.6% | GEO mean OX40L expressing HEK [6]: 1.53e+06 | Kd [7]: 0.00823 µM | koff [8]: 0.000171 s⁻¹

B6: PMX026 (antibody, V domains shown)
VH: EVHLVESGGDLVKPGGSLRLSCVASGFTFSSYHMSWVRQAPGKGLQWVAFINAGEISTNYADAVKGRFTISRDNAKNILYLQMNSLRAEDTAVYYCASGHIWIRPFDYWGQGTLVTVSS
VL: SYVLTQLPSMSVTLRQTARITCEGDSIGRKRVNWYQQKLGQVPVLIIYDDDSRPSGIPERFSGANSGNTATLTISGALAEDEAEYYCQVWDSSNNWVFGEGTQLTVL
notes: also called PMX26
koff [3]: 0.00131 s⁻¹ | GEO mean difference [4]: 1.36e+06 | % Signal Inhibition Average [5]: 67.1% | % Signal Inhibition Rep1 [5]: 67.6% | % Signal Inhibition Rep2 [5]: 65.1% | % Signal Inhibition Rep3 [5]: 68.7% | GEO mean OX40L expressing HEK [6]: 1.39e+06 | Kd [7]: 0.903 µM | koff [8]: 0.00191 s⁻¹

The remaining lines, values ahead:

koff [3]: 0.0022 s⁻¹ | GEO mean difference [4]: 1.25e+06 | % Signal Inhibition Average [5]: 80.8% | % Signal Inhibition Rep1 [5]: 69.2% | % Signal Inhibition Rep2 [5]: 77.3% | % Signal Inhibition Rep3 [5]: 96.1% | GEO mean OX40L expressing HEK [6]: 1.28e+06 | Kd [7]: 0.017 µM | koff [8]: 0.00249 s⁻¹
B3: PMX043 (antibody)
heavy: EVQLVESGGDLVKPEGSLRLSCVVSGFTFSSYDMSWVRQAPGKGLQWVAYITNDGRYTSYTDAVKGRFTISRDNAKNTLYLQMNSLRTEDTAIYYCAKHGSSWSRGRFAMDYWGQGTSLFVSSASTTAPSVFPLAPSCGSTSGSTVALACLVSGYFPEPVTVSWNSGSLTSGVHTFPSVLQSSGLYSLSSMVTVPSSRWPSETFTCNVAHPASKTKVDKPVPKRENGRVPRPPDCPKCPAPESLGGPSVFIFPPKPKDTLLIARTPEVTCVVVDLGREDPEVQISWFVDGKQMQTAKTQPREEQFNGTYRVVSVLPIGHQDWLKGKQFTCKVNHIGLPSPIERTISKARGQAHQPSVYVLPPSREELSKNTVSLTCLIKDFFPPDIDVEWQSNGQQEPESKYRTTPPQLDEDGSYFLYSKLSVDKSRWQRGDTFICAVMHEALHNHYTQKSLSHSPGK
VL: B4 VL with K15N, N26S, S29T, Y48F, S93N, G95S
notes: also called PMX43

koff [3]: 2.02e-05 s⁻¹ | GEO mean difference [4]: 1.22e+06 | % Signal Inhibition Average [5]: 84.8% | % Signal Inhibition Rep1 [5]: 84.8% | % Signal Inhibition Rep2 [5]: 69.5% | % Signal Inhibition Rep3 [5]: 100% | GEO mean OX40L expressing HEK [6]: 1.25e+06 | Kd [7]: 0.0404 µM | koff [8]: 0.00101 s⁻¹
B5: PMX046 (antibody)
heavy: B4 heavy with P11L, Q18L, S25A, S30N, S57F, R76K, F80Y, N84S, S104Y, Y112F
VL: B4 VL with V44I, G95S
notes: also called PMX46

GEO mean OX40L expressing HEK [1]: 7760 | GEO mean difference [2]: 4100 | % Signal Inhibition Average [9]: -17.2% | % Signal Inhibition Rep1 [9]: -9.89% | % Signal Inhibition Rep2 [9]: -4.12% | % Signal Inhibition Rep3 [9]: -37.6%
B7: PMX106 (antibody, V domains shown)
VH: EVQLVESGGDLVKPGGSLRLSCVASGFTFSSYHMSWVRQAPGKGLQWVAYINSGGSSTSYADAVKGRFTISRDNAKNTLYLQMNSLRAEDTAVYYCAGFIWTHFDYWGQGTLVTVSS
VL: DIVMTQTPPSLSVSPRETASISCKASQSLLHSDGNTYLDWYLQKPGQSPQLLIYLVSNRFTGVSDRFSGSGSGTDFTLRISRVEANDTGVYYCGQGTQLWTFGAGTKVELK
